Experimental data reported in US20240067758A1 (UCB, published 2024).
Positions count from the first letter of the chain named. Names may count otherwise. “And” between values parts separate entries of the source, which are not always exact repeats. Identical values can stand only once. Each block holds one binder with its values, some of them ahead of it.

Experiments:
Human IL22 [1] = target: T1, Human IL22 (human, UniProt Q9GZX6 34-179); test: SPR (Biacore); Fab variant, human IL22
T1 construct: IL22 of the Biacore and cell assays
T1 sequence: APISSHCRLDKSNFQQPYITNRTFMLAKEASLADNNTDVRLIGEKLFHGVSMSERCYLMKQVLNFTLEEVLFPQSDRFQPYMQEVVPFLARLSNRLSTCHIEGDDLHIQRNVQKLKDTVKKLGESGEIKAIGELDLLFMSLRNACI

Human IL22 [2] = target: T1, Human IL22; test: cell-based or functional assay
Human IL22 [3] = target: T1, Human IL22; test: cell-based or functional assay; remark: listed apart in the source
Human IL13 [4] = target: T2, Human IL13 (human, UniProt P35225 35-146, limits assumed); test: cell-based or functional assay
Human IL13 [5] = target: T2, Human IL13; test: cell-based or functional assay; remark: listed apart in the source
Human IL13 [6] = target: T2, Human IL13; test: cell-based or functional assay; remark: listed apart in the source
Human IL22 [7] = target: T1, Human IL22; test: SPR Biacore T200; Fab captured on anti-rabbit F(ab')2, IL22 titrated 0.6-50 nM
Experimental: (§1) HBS-EP+ buffer (10 mM HEPES pH 7.4, 0.15 M NaCl, 3 mM EDTA, 0.05% Surfactant P20, GE Healthcare) was used as the running buffer with a flow rate of 10 μL/min.
(§2) The surface was generated by 2×10 μL injection of 50 mM HCl, interspersed by a 10 μL injection of 5 mM NaOH at flowrate of 10 μL/min. Background subtraction binding curves were analyzed using the Biacore T200 evaluation software following standard procedures. Kinetic parameters were determined from the fitting algorithm.

Cynomolgus IL22 = target: T3, Cynomolgus IL22 (cynomolgus, UniProt G7PHZ7 34-179); test: as above
T3 construct: also called Cyno IL22; Cyno IL-22
T3 sequence: T1 sequence with I3V, L32S, H48R, F72L, R95S, R110K
Experimental: as §1, §2

Mouse IL22 = target: T4, Mouse IL22 (mouse, UniProt Q9JJY9 34-179); test: as above
T4 sequence (looked up): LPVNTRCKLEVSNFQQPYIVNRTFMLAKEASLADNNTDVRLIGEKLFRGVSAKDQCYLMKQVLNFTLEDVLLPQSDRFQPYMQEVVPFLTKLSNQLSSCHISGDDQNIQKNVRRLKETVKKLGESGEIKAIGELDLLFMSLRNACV
Experimental: as §1, §2

Human IL22 [8] = target: T1, Human IL22; test: SPR (Biacore); Fab variant, human IL22; remark: listed apart in the source
Human IL22 [9] = target: T1, Human IL22; test: SPR Biacore 8K; Fab captured on anti-human F(ab')2, human IL22 titrated 617 pM-50 nM; single experiment
Experimental: The assay was run on Biacore 8K instrument (GE Healthcare) and BIA (Biomolecular Interaction Analysis) was performed using Biacore 8000 evaluation software Affinipure Goat anti-human IgG-F(ab′)2 fragment specific (Jackson ImmunoResearch) was immobilized on a CM5 Sensor Chip via amine coupling chemistry to a capture level of ˜5000 response units (RUs). HBS-EP+ buffer (10 mM HEPES pH 7.4, 0.15 M NaCl, 3 mM EDTA, 0.05% Surfactant P20, GE Healthcare) was used as the running buffer with a flow rate of 10 μL/min.
The surface was generated by 2×10 μL injections of 50 mM HCl, interspersed by a 5 μL injection of 5 mM NaOH at flowrate of 10 μL/min. Background subtraction binding curves were analyzed using the Insight evaluation software following standard procedures. Kinetic parameters were determined from the fitting algorithm.

Human IL22 [10] = target: T1, Human IL22; test: SPR

- Kd (Human IL22 [1]): 0.0317 nM
B1: 11070gL1gH13 (Fab, V domains shown)
VH: EVQLQESGPGLVKPSQTLSLTCTVSGFSLTSYSVHWVRQHSGKGLEWMGRMWSDGDTSYNTAFTSRLTISRDTSKSQVSLKLSSVTAADTAVYYCARSLDFYYDTTLAFWGQGTTVTVSS
VL: DIVMTQSPSSVSASVGDRVTITCKASKTISKYLAWYQQKPGKANKLLIYSGSTLQSGTPSRFSGSGSSTDFTLTISSLQPEDFATYYCQQHNEYPLTFGQGTKLEIK
notes: V-regions only; also called 11070gL1gH1 S61T

- Kd (Human IL22 [1]): 0.0257 nM
B2: 11070gL7gH16 Fab (Fab, V domains shown)
VH: B1 VH with S41P, M48I, S76N
VL: DIQMTQSPSSVSASVGDRVTITCKASKTISKYLAWYQQKPGKANKLLIYSGSTLQSGVPSRFSGSGSGTDFTLTISSLQPEDFATYYCQQHNEYPLTFGQGTKLEIKR
notes: also called VR11070

- Kd (Human IL22 [1]): 0.0368 nM
B3: 11070gL1gH1 (Fab, V domains shown)
VH: B1 VH with T61S
VL: B1 VL
notes: V-regions only

- IC50 (M) Geomean; IL22-induced IL-10 release, COLO205 cells; PB8919 (N = 2) (Human IL22 [2]): 5.73e-11 M
- IC50 (M) Geomean; IL22-induced IL-10 release, COLO205 cells; PB8842 (N = 2) (Human IL22 [3]): 7.13e-11 M
- IC50 (pM) Geomean, N = 2; STAT-6 reporter assay, HEK-Blue IL-4/IL13 cells; PB8842 (Human IL13 [4]): 4.9 pM
- IC50 (pM), concatenated IC50 values; STAT-6 reporter assay; PB8842 (Human IL13 [4]): 4.6 pM and 5.2 pM
- IC50 (pM) Geomean, N = 2; STAT-6 reporter assay, HEK-Blue IL-4/IL13 cells; PB8919 (Human IL13 [5]): 2.3 pM
- IC50 (pM), concatenated IC50 values; STAT-6 reporter assay; PB8919 (Human IL13 [5]): 2 pM and 2.7 pM
- IC50 (read off the curve), inhibition of eotaxin-3 secretion, primary human keratinocytes stimulated with IL-13 and IL-22 at 100 ng/ml (Human IL13 [6]): ~0.8 nM
B4: IL13H/IL22K knob in hole bispecific (bispecific antibody, human IgG4 S228P, kappa)
heavy 1: not shown
light 1: AVQLTQSPSSLSASVGDRVTITCQASEDIYTNLAWYQQKPGKAPKLLIYWASTLASGVPSRFSGSGSGTDFTLTISSLQPEDFATYYCQASVYGNAADSRYTFGGGTKVEIKRTVAAPSVFIFPPSDEQLKSGTASVVCLLNNFYPREAKVQWKVDNALQSGNSQESVTEQDSKDSTYSLSSTLTLSKADYEKHKVYACEVTHQGLSSPVTKSFNRGEC
heavy 2: EVQLVQSGAEVKKPGSSVKVSCKASGYSFTSYYIHWVRQAPGQGLEWMGRIGPGSGDINYNEKFKGRATFTVDKSTSTAYMELSSLRSEDTAVYYCARFHYDGADWGQGTLVTVSSASTKGPSVFPLAPCSRSTSESTAALGCLVKDYFPEPVTVSWNSGALTSGVHTFPAVLQSSGLYSLSSVVTVPSSSLGTKTYTCNVDHKPSNTKVDKRVESKYGPPCPPCPAPEFLGGPSVFLFPPKPKDTLMISRTPEVTCVVVDVSQEDPEVQFNWYVDGVEVHNAKTKPREEQFNSTYRVVSVLTVLHQDWLNGKEYKCKVSNKGLPSSIEKTISKAKGQPREPQVYTLPPSQEEMTKNQVSLSCAVKGFYPSDIAVEWESNGQPENNYKTTPPVLDSDGSFFLVSRLTVDKSRWQEGNVFSCSVMHEALHNHYTQKSLSLSLGK
light 2: DIQMTQSPSSLSASVGDRVTITCKASQNINENLDWYQQKPGKAPKLLIYYTDILQTGIPSRFSGSGSGTDYTLTISSLQPEDFATYYCYQYYSGYTFGQGTKLEIKRTVAAPSVFIFPPSDEQLKSGTASVVCLLNNFYPREAKVQWKVDNALQSGNSQESVTEQDSKDSTYSLSSTLTLSKADYEKHKVYACEVTHQGLSSPVTKSFNRGEC

- Kd (Human IL22 [7]): 0.34 nM
- koff (Human IL22 [7]): 0.00029 s⁻¹
- kon (Human IL22 [7]): 870000 M⁻¹ s⁻¹
- Kd (Cynomolgus IL22): 1.1 nM
- koff (Cynomolgus IL22): 0.00028 s⁻¹
- kon (Cynomolgus IL22): 260000 M⁻¹ s⁻¹
- Kd (Mouse IL22): 3 nM
- koff (Mouse IL22): 0.11 s⁻¹
- kon (Mouse IL22): 3.7e+07 M⁻¹ s⁻¹
B5: Rabbit 11041 Fab (Fab, V domains shown)
VH: QSVEESGGRLVTPGTPLTLTCTVSGFSLSSYAMIWVRQAPGEGLEWIGIIDIDGSTYYASWAKGRFTISRTSTTVDLKITSPTTGDTATYFCARDRFVGVDIFDPWGPGTLVTVSS
VL: AVVLTQTASPVSAPVGGTVTIKCQASEDIYTNLAWYQQKPGQPPKLLIYWASTLASGVPSRFKGSGSGTEFTLTISDLECADAATYYCQACVYGNSADSRYTFGGGTEVVVK
notes: Rabbit Fab

- Kd (Human IL22 [8]): 0.0125 nM
- Kd (Human IL22 [9]): 0.0125 nM
- kon (Human IL22 [9]): 1.01e+06 M⁻¹ s⁻¹
B6: 11041gL13gH14 Fab (Fab, V domains shown)
VH: EVQLVESGGGLVQPGGSLRLSCAVSGFSLSSYAMIWVRQAPGKGLEWIGIIDIEGSTYYASWAKGRFTISRDNSKNTVYLQMNSLRAEDTAVYYCARDRFVGVDIFDPWGQGTLVTVSS
VL: AVQLTQSPSSLSASVGDRVTITCQASEDIYTNLAWYQQKPGKAPKLLIYWASTLASGVPSRFSGSGSGTDFTLTISSLQPEDFATYYCQASVYGNAADSRYTFGGGTKVEIKR
notes: also called 11041gL6 C91S S96A gH5 D54E

- Kd (Human IL22 [8]): 0.0161 nM
B7: 11041gL6 C91S gH5 D54E (Fab, V domains shown)
VH: B6 VH
VL: AVQLTQSPSSLSASVGDRVTITCQASEDIYTNLAWYQQKPGKAPKLLIYWASTLASGVPSRFSGSGSGTDFTLTISSLQPEDFATYYCQASVYGNSADSRYTFGGGTKVEIK
notes: also called 11041gL11gH14

- Kd (Human IL22 [8]): 0.0849 nM
B8: 11041gL6 C91S S96A gH8 D54E (Fab, V domains shown)
VH: B6 VH with N73S, V78L
VL: B6 VL
notes: also called 11041gL13gH15

- fold increase in binding affinity against 11041gL1gH1 (Human IL22 [10]): 15 fold
- Kd (Human IL22 [8]): 0.0419 nM
B9: 11041gL1 C91V gH1 (Fab, V domains shown)
VH: B6 VH with E54D, N73S
VL: B7 VL with Q3V, S91V
notes: V-regions only; also called 11041gL3gH1

- Kd (Human IL22 [8]): 0.0517 nM
B10: 11041gL6 C91S S96A gH12 D54E (Fab, V domains shown)
VH: B6 VH with G49S, V78L
VL: B6 VL
notes: also called 11041gL13gH18

- Kd (Human IL22 [8]): 0.0266 nM
B11: 11041gL7 C91S S96A gH5 D54E (Fab, V domains shown)
VH: B6 VH
VL: B7 VL with V2I, S96A
notes: also called 11041gL14gH14

- Kd (Human IL22 [8]): 0.0739 nM
B12: 11041gL7 C91S gH12 D54E (Fab, V domains shown)
VH: B6 VH with G49S, V78L
VL: B7 VL with V2I
notes: V-regions only; also called 11041gL12gH18

- Kd (Human IL22 [8]): 0.0233 nM
B13: 11041gL1 C91S S96A gH5 D54E (Fab, V domains shown)
VH: B6 VH
VL: B7 VL with Q3V, S96A
notes: heavy chain is the gH5 D54E (gH14) Fab heavy chain; also called 11041gL10gH14

- Kd (Human IL22 [8]): 0.0666 nM
B14: 11041gL7 C91S gH11 D54E (Fab, V domains shown)
VH: B6 VH with I48V, V78L
VL: B7 VL with V2I
notes: V-regions only; also called 11041gL12gH17

- Kd (Human IL22 [8]): 0.0293 nM
B15: 11041gL7 C91S gH5 D54E (Fab, V domains shown)
VH: B6 VH
VL: B7 VL with V2I
notes: also called 11041gL12gH14

- Kd (Human IL22 [8]): 0.115 nM
B16: 11041gL7 C91S gH8 D54E (Fab, V domains shown)
VH: B6 VH with N73S, V78L
VL: B7 VL with V2I
notes: V-regions only; also called 11041gL12gH15

- Kd (Human IL22 [8]): 0.0524 nM
B17: 11041gL6 C91S S96A gH11 D54E (Fab, V domains shown)
VH: B6 VH with I48V, V78L
VL: B6 VL
notes: also called 11041gL13gH17

- fold increase in binding affinity against 11041gL1gH1 (Human IL22 [10]): 50 fold
- Kd (Human IL22 [8]): 0.0124 nM
B18: 11041gL1 C91S gH1 (Fab, V domains shown)
VH: B6 VH with E54D, N73S
VL: B7 VL with Q3V
notes: V-regions only; also called 11041gL2gH1

- Kd (Human IL22 [8]): 0.446 nM
B19: 11041gL7gH1 (Fab, V domains shown)
VH: B6 VH with E54D, N73S
VL: B7 VL with V2I, S91C
notes: V-regions only
